Assay results as given in the Human Domainome abundance scans (Beltran et al. 2025).
± gives the uncertainty stated by the source.

B1: Telomeric repeat-binding factor 2, residues 489 to 542; numbered along this chain, Q15554 (parent)
chain: KQKWTVEESEWVKAGVQKYGEGNWAAISKNYPFVNRTAVMIKDRWRTMKRLGMN

Variants of: B1
Test: abundance fitness (aPCA) (normalised: wild type 0, dead -1); higher = more abundant; growth selection in yeast, the domain comes from the species named
Conditions: Homo sapiens

| Variant | abundance fitness |
| --- | --- |
| I27T | -0.533 ± 0.28 |
| I27H | -0.235 ± 0.26 |
| I27W | -0.919 ± 0.24 |
| G20W | -0.541 ± 0.089 |
| G20T | -0.99 ± 0.17 |
| G20S | -0.488 ± 0.1 |
| G20P | -0.813 ± 0.37 |
| G20Y | -0.781 ± 0.28 |
| G20A | -1.11 ± 0.29 |
| G20L | -1.06 ± 0.24 |
| G20H | -0.126 ± 0.16 |
| G20E | -0.954 ± 0.37 |
| G20Q | -0.587 ± 0.33 |
| G20V | -0.918 ± 0.25 |
| G20I | -0.621 ± 0.45 |
| G15D | -0.772 ± 0.3 |
| G15H | -0.946 ± 0.42 |
| G15A | -0.761 ± 0.053 |
| G15E | -0.758 ± 0.21 |
| G15K | -0.657 ± 0.23 |
| G15L | -0.503 ± 0.082 |
| G15N | -0.485 ± 0.1 |
| G15C | -0.652 ± 0.17 |
| G15F | -0.888 ± 0.34 |

| Variant | abundance fitness |
| --- | --- |
| G15W | -0.284 ± 0.14 |
| G15V | -0.587 ± 0.091 |
| G15I | 0.246 ± 0.38 |
| G15M | -0.934 ± 0.38 |
| E21M | -0.829 ± 0.26 |
| E21H | -0.598 ± 0.32 |
| E21G | -0.389 ± 0.084 |
| E21Y | -0.123 ± 0.14 |
| E21S | -0.323 ± 0.085 |
| E21C | -0.432 ± 0.12 |
| E21K | -0.44 ± 0.075 |
| E21Q | -0.634 ± 0.12 |
| E21W | -0.502 ± 0.083 |
| E21T | -0.478 ± 0.064 |
| E21D | -0.26 ± 0.14 |
| E21R | -0.704 ± 0.12 |
| E21A | -0.314 ± 0.05 |
| E21F | -0.1 ± 0.12 |
| K18A | -0.368 ± 0.13 |
| K18L | -0.342 ± 0.07 |
| K18P | -0.686 ± 0.11 |
| K18R | 0.076 ± 0.067 |
| K18F | -0.477 ± 0.46 |
| K18G | -0.616 ± 0.14 |

| Variant | abundance fitness |
| --- | --- |
| K18Q | -0.07 ± 0.11 |
| K18T | -0.035 ± 0.12 |
| K18S | -0.736 ± 0.27 |
| K18E | -0.233 ± 0.11 |
| K18W | -0.956 ± 0.21 |
| K18N | -0.435 ± 0.18 |
| K18M | -0.254 ± 0.12 |
| K18C | -0.403 ± 0.34 |
| S28W | 0.036 ± 0.095 |
| S28N | 0.163 ± 0.14 |
| S28C | -0.17 ± 0.12 |
| S28Y | -0.458 ± 0.3 |
| S28D | -0.887 ± 0.42 |
| S28Q | 0.11 ± 0.13 |
| S28K | 0.114 ± 0.068 |
| S28M | -0.568 ± 0.26 |
| S28A | 0.142 ± 0.097 |
| S28G | -0.171 ± 0.085 |
| S28I | 0.196 ± 0.14 |
| S28P | -0.726 ± 0.31 |
| S28V | 0.121 ± 0.076 |
| S28H | 0.101 ± 0.23 |
| S28F | -0.098 ± 0.11 |
| S28T | 0.038 ± 0.14 |

| Variant | abundance fitness |
| --- | --- |
| V16W | -0.765 ± 0.094 |
| V16E | -0.62 ± 0.092 |
| V16K | -0.798 ± 0.43 |
| V16G | -0.504 ± 0.062 |
| V16L | -0.696 ± 0.19 |
| V16H | -0.071 ± 0.28 |
| V16Y | -0.885 ± 0.25 |
| V16R | -0.323 ± 0.074 |
| V16S | -0.563 ± 0.085 |
| V16I | -0.446 ± 0.2 |
| V16M | -0.664 ± 0.05 |
| V16F | -0.936 ± 0.44 |
| V16Q | -0.398 ± 0.13 |
| V16D | -0.459 ± 0.091 |
| V16A | -0.505 ± 0.1 |
| V16T | -0.157 ± 0.17 |
| P32V | -0.747 ± 0.04 |
| P32H | -0.574 ± 0.043 |
| P32T | -0.532 ± 0.042 |
| P32C | -0.593 ± 0.053 |
| P32L | -0.726 ± 0.037 |
| P32I | -0.774 ± 0.069 |
| P32A | -0.327 ± 0.038 |
| P32E | -0.611 ± 0.045 |

| Variant | abundance fitness |
| --- | --- |
| P32M | -0.565 ± 0.04 |
| P32G | -0.429 ± 0.037 |
| P32K | -0.316 ± 0.039 |
| P32Q | -0.501 ± 0.044 |
| P32Y | -0.864 ± 0.068 |
| P32R | -0.4 ± 0.042 |
| P32S | -0.361 ± 0.037 |
| P32N | -0.294 ± 0.052 |
| P32F | -0.746 ± 0.045 |
| W24F | -0.642 ± 0.23 |
| W24Q | -0.442 ± 0.34 |
| W24P | -0.89 ± 0.36 |
| W24L | -0.858 ± 0.18 |
| W24D | -0.72 ± 0.2 |
| W24T | -0.705 ± 0.21 |
| W24S | -0.226 ± 0.15 |
| W24G | -0.596 ± 0.14 |
| W24R | -1.15 ± 0.18 |
| W24E | -0.585 ± 0.16 |
| W24A | -0.932 ± 0.49 |
| W24K | -0.788 ± 0.48 |
| W24I | -0.291 ± 0.27 |
| W24V | -1.08 ± 0.23 |
| W24C | -0.982 ± 0.34 |

| Variant | abundance fitness |
| --- | --- |
| Y31K | -0.535 ± 0.13 |
| Y31H | -0.539 ± 0.094 |
| Y31P | -0.389 ± 0.22 |
| Y31C | -0.49 ± 0.16 |
| Y31Q | -0.751 ± 0.05 |
| Y31S | -0.729 ± 0.069 |
| Y31V | -0.496 ± 0.11 |
| Y31W | -0.444 ± 0.1 |
| Y31R | -0.626 ± 0.11 |
| Y31G | -0.499 ± 0.074 |
| Y31T | -0.727 ± 0.051 |
| Y31E | -0.757 ± 0.12 |
| Y31D | -0.499 ± 0.28 |
| Y31F | -0.417 ± 0.26 |
| Y31N | -0.539 ± 0.056 |
| Y31M | -0.431 ± 0.1 |
| K13F | -0.24 ± 0.22 |
| K13I | -0.163 ± 0.16 |
| K13M | -0.013 ± 0.069 |
| K13A | -0.242 ± 0.1 |
| K13L | -0.112 ± 0.087 |
| K13R | 0.017 ± 0.066 |
| K13G | -0.184 ± 0.05 |
| K13V | -0.021 ± 0.048 |

| Variant | abundance fitness |
| --- | --- |
| K13Y | -0.072 ± 0.11 |
| K13D | -0.332 ± 0.21 |
| K13E | -0.25 ± 0.18 |
| K13S | -0.128 ± 0.049 |
| K13H | -0.13 ± 0.14 |
| K13Q | 0.076 ± 0.084 |
| K13N | -0.232 ± 0.057 |
| K13C | -0.534 ± 0.16 |
| G22D | -0.051 ± 0.072 |
| G22K | -0.418 ± 0.16 |
| G22E | -0.461 ± 0.17 |
| G22W | -0.695 ± 0.17 |
| G22V | -0.489 ± 0.07 |
| G22Y | -0.204 ± 0.068 |
| G22R | -0.261 ± 0.1 |
| G22F | -0.338 ± 0.19 |
| G22I | -0.595 ± 0.29 |
| G22M | -0.788 ± 0.15 |
| G22Q | -0.427 ± 0.09 |
| G22A | -0.286 ± 0.1 |
| G22T | -0.467 ± 0.35 |
| G22P | -0.846 ± 0.25 |
| G22L | -0.761 ± 0.14 |
